Assays:
[1] = target: T1, HLA-A0201 molecules on T2 (HLA-A2+) cells (human); assay: T2 cell surface HLA-A02 stabilisation, flow cytometry, 25 µM peptide
T1 construct: whole, on cells; MHC class I molecule on T2 cells; also called HLA-A2.1
Procedure: (§1) HLA-A2 binding assay. […] T2 cells (1×10⁶) in serum-free Iscove's modified Dulbecco's medium were incubated in the presence of various concentrations of each peptide, in 24-well culture plates at 37° C. with 5% CO₂. After 18 hours in culture, T2 cells were harvested, washed with 1× phosphate buffered saline (PBS) (Invitrogen) and stained with 20 μl of a FITC-conjugated anti-HLA-A02-specific monoclonal antibody (MAb) (One Lambda, Inc., Canoga Park, Calif.). A FITC-conjugated IgG2a MAb (BD Biosciences, San Jose, Calif.) was used as an isotype control. Data acquisition and analysis were conducted on a FACSCalibur™ system using the CELLQueSt™ software (BD Biosciences). Results were expressed as mean fluorescence intensity (MFI) collected on a log scale. […] Assuming first order kinetics, the log₂ of MFI/MFI₀ (MFI is the fluorescence at each time point and MFI₀ the initial fluorescence at time 0) was plotted against time (minutes). The decay rate constant was calculated as the slope of the linear regression for each curve and the half-life of each peptide-MHC complex was calculated as […].
In silico-predicted epitopes were then assessed for binding to the MHC molecules in a cell-based assay. […]

[2] = target: T1, HLA-A0201 molecules on T2 (HLA-A2+) …; assay: T2 cells loaded with 25 µM peptide, brefeldin A chase, HLA-A02 flow cytometry over time
Procedure: as §1
In silico-predicted epitopes were then assessed for binding to the MHC molecules in a cell-based assay. TAP-deficient T2 (HLA-A2+) cells were incubated in the presence of 25 μM of each peptide and subsequently tested for cell surface MHC-stabilization by bound peptides.

Binder | binding result [1] | half-life of MHC-peptide complex [2] [h]
SQYPSLWSV [Brachyury peptide T-p1] | binds | –
RLIASWTPV (Synthesized at >90% purity) [Brachyury peptide T-p3] | – | 3.75
AMYSFLLDFV (Synthesized at >90% purity) [Brachyury peptide T-p4] | – | 5.2
WLLPGTSTL (Synthesized at >90% purity) [Brachyury peptide T-p2] | – | 8.57
